Assay results taken from patent US7479478B2, “Human parathyroid hormone modifications, preparation and use” (The General Hospital Corporation, priority 1998, dated 2009).
No end group written: not given here.

Assays:
human PTH-1 receptors [1] = molecular target: T1, human PTH-1 receptors (Homo sapiens, UniProt Q03431); assay: AC activation in cells that express fewer human PTH-1 receptors (LLC-PK1 subclones, SaOS-2); type: cell-based; details: LLC-PKI or SaOS-2 osteosarcoma cells, 10,000-100,000 receptors per cell; data not shown
T1 construct: expressed in transfected cells
T1 sequence (Q03431 27-593): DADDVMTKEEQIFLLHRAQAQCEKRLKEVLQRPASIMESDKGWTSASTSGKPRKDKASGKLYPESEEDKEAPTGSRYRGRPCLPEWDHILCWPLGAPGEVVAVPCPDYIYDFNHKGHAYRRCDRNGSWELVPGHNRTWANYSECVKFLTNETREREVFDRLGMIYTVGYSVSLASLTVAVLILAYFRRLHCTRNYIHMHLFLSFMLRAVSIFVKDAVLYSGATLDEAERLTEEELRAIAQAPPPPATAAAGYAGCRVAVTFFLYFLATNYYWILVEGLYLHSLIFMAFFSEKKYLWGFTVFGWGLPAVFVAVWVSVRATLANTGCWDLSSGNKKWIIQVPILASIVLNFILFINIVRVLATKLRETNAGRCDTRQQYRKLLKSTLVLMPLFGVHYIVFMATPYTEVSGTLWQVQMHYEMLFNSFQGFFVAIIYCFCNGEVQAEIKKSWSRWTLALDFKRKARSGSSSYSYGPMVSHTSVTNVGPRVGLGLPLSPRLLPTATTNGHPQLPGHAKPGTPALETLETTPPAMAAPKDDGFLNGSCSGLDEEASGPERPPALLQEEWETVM
Method: Intracellular cAMP accumulation, PLC activation and PTHR binding affinity were measured as previously reported (Bringhurst, F. R., et al., Endocrinology 132(5):2090-2098 (1993); Guo, J., et al., Endocrinology 136(9):3884-3891 (1995)). Intracellular cAMP accumulation was measured in extracts of cells that were exposed to human PTH peptides in the presence of isobutylmethyxanthine (IBMX, 1 mM) at 37° C. for 15 min. After terminating the reactions by aspiration and freezing in liquid nitrogen, cell monolayers were extracted with 50 mM HCl and cAMP was measured using a radioimmunoassay kit (Dupont-New England Nuclear, Boston, Mass.).
The possibility that the [Gly^1,Arg^19]hPTH-(1-28) peptide might be useful, especially in rodent models, as a signal-selective analog to dissociate AC from PLC signaling via the PTH-1 receptor was examined further using the EW5 subclone of LLC-PK1 cells that stably expresses rat PTH-1 receptors (Guo, J., et al., Endocrinology 136(9):3884-3891 (1995)). […]

human PTH-1 receptors [2] = molecular target: T1, human PTH-1 receptors; assay: Intracellular cAMP accumulation (adenylyl cyclase, AC, activation) in HKRK B7 cells; type: cell-based; details: HKRK B7 cells; for AC activation (cAMP accumulation), result in words: compared with hPTH-(1-34) or parent peptide
Method: HKRK B7 or EW5 cells (32), subclones of LLC-PKI renal epithelial cells that stably express human or rat PTH-1 receptors (950,000 and 320,000 receptors/cell, respectively), were maintained under 5% CO2 in air in Dulbecco's modified essential medium containing 7% fetal bovine serum (FBS) and 1% penicillin/streptomycin (GIBCO-BRL, Grand Island, N.Y.). HEK-293 and COS-7 cells were cultured similarly, except that 10% FBS was used in the medium. Cells were seeded into 24-well plates two days before assay at a density of 2-2.5×10^5 cells/well (HKRK B7 or EW 5 cells) or 6×10^5 cells/well (in 6-well plates) (HEK-293 cells). In experiments involving HEK-293 cells, DNA transfections were performed 24 hr after plating and inositol radiolabel was added 24 hr thereafter (see below). COS-7 cell transfections were performed as previously described (Gardella, T. J., et al., Endocrinology 132(5):2024-2030 (1993)) Intracellular cAMP accumulation, PLC activation and PTHR binding affinity were measured as previously reported (Bringhurst, F. R., et al., Endocrinology 132(5):2090-2098 (1993); Guo, J., et al., Endocrinology 136(9):3884-3891 (1995)). Intracellular cAMP accumulation was measured in extracts of cells that were exposed to human PTH peptides in the presence of isobutylmethyxanthine (IBMX, 1 mM) at 37° C. for 15 min. After terminating the reactions by aspiration and freezing in liquid nitrogen, cell monolayers were extracted with 50 mM HCl and cAMP was measured using a radioimmunoassay kit (Dupont-New England Nuclear, Boston, Mass.).

| Substance | fold reduction of AC activation relative to hPTH-(1-34) (human PTH-1 receptors [1]) | AC activation (cAMP accumulation), result in words (human PTH-1 receptors [2]) | EC50 (human PTH-1 receptors [2]) [nM] |
| --- | --- | --- | --- |
| GVSEIQLMHNLGKHLNSMRRVEWLRKKL [[Gly^1,Arg^19]hPTH-(1-28)] | 10-20 fold | indistinguishable from that of hPTH-(1-34) and equivalent to that by hPTH(1-34) and full |  |
| SVSEIQLMHNLGKHLNSMERVEWLRKKL-NH2 [hPTH-(1-28)] |  | as effectively as did hPTH-(1-34) | 1 |
